{"source": "paper PMC10899662", "about": "“TopBP1 utilises a bipartite GINS binding mode to support genome replication” (Nature Communications, 2024)", "molecules": {"B1": {"name": "TopBP1-BRCT0-5-WT: recombinant TopBP1 amino acids 1–766, strep-tagged (protein)", "chain": "MSRNDKEPFFVKFLKSSDNSKCFFKALESIKEFQSEEYLQIITEEEALKIKENDRSLYICDPFSGVVFDHLKKLGCRIVGPQVVIFCMHHQRCVPRAEHPVYNMVMSDVTISCTSLEKEKREEVHKYVQMMGGRVYRDLNVSVTHLIAGEVGSKKYLVAANLKKPILLPSWIKTLWEKSQEKKITRYTDINMEDFKCPIFLGCIICVTGLCGLDRKEVQQLTVKHGGQYMGQLKMNECTHLIVQEPKGQKYECAKRWNVHCVTTQWFFDSIEKGFCQDESIYKTEPRPEAKTMPNSSTPTSQINTIDSRTLSDVSNISNINASCVSESICNSLNSKLEPTLENLENLDVSAFQAPEDLLDGCRIYLCGFSGRKLDKLRRLINSGGGVRFNQLNEDVTHVIVGDYDDELKQFWNKSAHRPHVVGAKWLLECFSKGYMLSEEPYIHANYQPVEIPVSHKPESKAALLKKKNSSFSKKDFAPSEKHEQADEDLLSQYENGSSTVVEAKTSEARPFNDSTHAEPLNDSTHISLQEENQSSVSHCVPDVSTITEEGLFSQKSFLVLGFSNENESNIANIIKENAGKIMSLLSRTVADYAVVPLLGCEVEATVGEVVTNTWLVTCIDYQTLFDPKSNPLFTPVPVMTGMTPLEDCVISFSQCAGAEKESLTFLANLLGASVQEYFVRKSNAKKGMFASTHLILKERGGSKYEAAKKWNLPAVTIAWLLETARTGKRADESHFLIENSTKEERSLETEITNGINLNSDTAEHP", "modifications": "left off: Strep, C-terminal, kept", "notes": "recombinant TopBP1 amino acids 1–766, strep-tagged"}}, "key": {"[1]": {"test_system": "chromatin-bound replication proteins", "experiment": "Chromatin mass spectrometry (CHROMASS) from TopBP1-depleted Xenopus egg extracts", "type": "biochemical, Xenopus laevis", "conditions": "mass spectrometry and immunoblotting; 75 min after starting replication, aphidicolin added, TopBP1 6 ng/µl; n = 4 for MS", "description": "Fig. 6 GINS binding to TopBP1 is required for the origin firing step of replication. a–c Heat map showing the intensity of chromatin-bound proteins recovered from TopBP1-depleted interphase Xenopus egg extracts supplemented wild type or mutant TopBP1 determined by quantitative mass spectrometry. Chromatin was isolated 75 min after sperm addition. All extracts contained […] aphidicolin and, where indicated, […] geminin. […] For the intensities of all proteins see Supplementary Data 2. b, c Volcano plots highlighting a selection of differentially detected proteins in samples described in (a). Log2 transformed LFQ intensities from four replicates each were analysed by a two-sided Student’s t-test. […] Coomassie staining of the gel part containing histones served as a loading control.\nFor chromatin isolation, XTopBP1-depleted interphase egg extract was supplemented with 50 µg/ml aphidicolin and aliquoted into 15 µl samples before addition of buffer or recombinant TopBP1 to a final concentration 6 ng/µl. 2.25 µM Xgeminin or buffer were added before incubation for 10 min on ice. To start the replication, 9 ng sperm DNA/µl extract was added and incubated for 75 min at 23 °C. […] For MS analysis, four biological replicates of chromatin pellets were analysed by CHROMASS[45]. […]"}, "GINS complex": {"test_system": "GINS complex", "experiment": "Size exclusion chromatography co-elution with GINS", "type": "binding", "conditions": "Superdex200; 20 µM of each component; 10 mM HEPES pH 7.5, 150 mM NaCl, 0.5 mM TCEP", "description": "Recombinant TopBP1 and GINS proteins were mixed in an equimolar ratio to give a final concentration of 20 µM of each component and incubated on ice for at least 30 min prior to application to a Superdex200increase 10 300 column (GE Healthcare, Little Chalfont, UK) equilibrated in 10 mM HEPES pH 7.5, 150 mM NaCl, 0.5 mM TCEP."}}, "data": [{"molecule": "B1", "values": [{"measurement": "chromatin binding of replisome markers / Mcm2-7", "setting": "[1]", "result": "Several replisome markers, including GINS and Cdc45, were detected on chromatin"}, {"measurement": "co-elution with GINS from size exclusion column", "setting": "GINS complex", "result": "co-eluted with the GINS complex"}]}]}
